Measurements reported in patent US20250059258A1.

Columns and labels:
[1] = molecular target: Herceptin Fab with a kappa light chain and binding specificity for Her2/neu (from the monoclonal antibody trastuzumab); assay: BLI (ForteBio), biotinylated ligand on sensor, 1:1 fit
[2] = molecular target: dimeric human IgG-lambda (Southern Biotech, Birmingham AL); assay: as above
[3] = molecular target: Tremfya Fab with a lambda light chain and binding specificity for IL23 (from the monoclonal antibody guselkumab); assay: as above
[4] = molecular target: Dupixent (IgG4 monoclonal antibody); assay: BLI, biotinylated ligand on sensor; 'Binding affinity (nM)'
[5] = molecular target: Praluent (IgG1 monoclonal antibody); assay: as above
[6] = molecular target: Ajovy (IgG2 monoclonal antibody); assay: as above

Row | Binder | Kd [1] | Kd [2] | Kd [3] | Kd [4] | Kd [5] | Kd [6]
1 | affinity ligand SEQ ID NO: 80 (designed binder, biotinylated (AviTag system)) MGGGGSAAAGDEADRWAALGAAYAARGDYDRAIEYYQRALELDPNNAWAWWDLGVAYAARGDYDRAIEYYERALELDPDDAHAWFRLGWAYAARGDYDRAIEYYERALELDPEDETARDVLEGARRARQGQAGQGGGSGLNDIFEAQKIEWHECHHHHHH | 7 nM | < 1 nM | 4 nM |  |  | 
2 | affinity ligand SEQ ID NO: 94 (designed binder, biotinylated (AviTag system)) MGGGGSAAAGDEAVRWEIQGAAYAARGDYDRAIEYYERALELDPNNAWAWWELGVAYAARGDYDRAIEYYERALELDPDDAHVWFRLGWAYAVRGDYDRAIEYYERALELDPEDELARRILEDARRARQGQAGQGGGSGLNDIFEAQKIEWHECHHHHHH | 14 nM | < 1 nM | 3 nM |  |  | 
3 | affinity ligand SEQ ID NO: 84 (designed binder, biotinylated (AviTag system)) MGGGGSAAAGDEGGRWEGQGAAYAARGDYDRAIEYYERALELDPNNAWAWWDLGVAYAARGDYDRAIEYYERALELDPDDATAWSRLGHAYAARGDYDRAIEYYERALELDPEDETARYLLEHARRARQGQAGQGGGSGLNDIFEAQKIEWHECHHHHHH | 32 nM | < 1 nM | 18 nM |  |  | 
4 | affinity ligand SEQ ID NO: 91 (designed binder, biotinylated (AviTag system)) MGGGGSAAAGDEAQRWENQGAAYAARGDYDRAIEYYGRALELDPNNAWAWWELGVAYAARGDYDRAIEYYERALELDPDDATAWSRLGHAYAARGDYDRAIEYYERALELDPENETARYLLEHARRARQGQAGQGGGSGLNDIFEAQKIEWHECHHHHHH | 46 nM | < 1 nM | 11 nM |  |  | 
5 | affinity ligand SEQ ID NO: 88 (designed binder, biotinylated (AviTag system)) MGGGGSAAAGDEAQCWENQGAAYAARGDYDRAIEYYERALELDPNNAWAWWELGVAYAARGDYDRAIEYYERALELDPDDATAWSRLGHAYAARGDYDRAIEYYERALELDPEDETARYLLEHARRARQGQAGQGGGSGLNDIFEAQKIEWHECHHHHHH | 32 nM | < 1 nM | 10 nM |  |  | 
6 | affinity ligand SEQ ID NO: 86 (designed binder, biotinylated (AviTag system)) MGGGGSAAAGDEAQRWENQGAAYAARGDYDRAIECYESALELDPNNAWAWWELGVAYAARGDYDRAIEYYERALELDPDDAIAWSRLGHAYAARGDYDRAIEYYERALELDPEDETARYLLEHARRARQGQAGQGGGSGLNDIFEAQKIEWHECHHHHHH | 28 nM | < 1 nM | 8 nM |  |  | 
7 | affinity ligand SEQ ID NO: 87 (designed binder, biotinylated (AviTag system)) MGGGGSAAAGDEAQHWENQGAAYAARGDYDRAIEYYERALELDPNNAWAWWELGVAYAARGDYDRAIEYYERALELDPDDATVWSRLGHAYAARGDYDRAIEYYERALELDPEDETARYLLEHARRARQGQAGQGGGSGLNDIFEAQKIEWHECHHHHHH | 84 nM | < 1 nM | 10 nM |  |  | 
8 | affinity ligand SEQ ID NO: 93 (designed binder, biotinylated (AviTag system)) MGGGGSAAAGDEAQRWENQGAAYAARGDYDRAIEYYERALELDPNNAWAWWELGVAYAARGDFDRAIEYYERALELDPDDATVWSRLGHAYAARGDYDRAIEYYERALELDPVDETARYLLEHARRARQGQAGQGGGSGLNDIFEAQKIEWHECHHHHHH | 15 nM | < 1 nM | 4 nM |  |  | 
9 | affinity ligand SEQ ID NO: 79 (designed binder, biotinylated (AviTag system)) MGGGGSAAAGDEADRWADLGAAYAARGDYDRAIEYYQRALELDPNNAWAWWDLGVAYAARGDYDRAIEYYQRALELDPNNAVAWRRLGHAYAARGDYDRAIEYYQRALELDPNNELAREQLERARRARHGQAGQGGGSGLNDIFEAQKIEWHECHHHHHH | 67 nM | < 1 nM | 28 nM |  |  | 
10 | affinity ligand SEQ ID NO: 85 (designed binder, biotinylated (AviTag system)) MGGGGSAAAGDEAERWDYLGAAYAARGDYDRAIEYYQRALELDPNNAWAWWDLGLAYAARGDYDRAIEYYQRALELDPNNAVAWFRLGWAYAARGDYDRAIEYYQRALELDPNNELARSELENARRARRGQAGQGGGSGLNDIFEAQKIEWHECHHHHHH | 53 nM | < 1 nM | 26 nM |  |  | 
11 | affinity ligand SEQ ID NO: 81 (designed binder, biotinylated (AviTag system)) MGGGGSAAAGDEAERWYDLGAAYAARGDYDRAIEYYQRALELDPNNAWAWWELGVAYAARGDYDRAIEYYQRALELDPNNAVAWRRLGIAYAARGDYDRAIEYYQRALELDPNNEVARDALEYARRARRGQAGQGGGSGLNDIFEAQKIEWHECHHHHHH | 31 nM | < 1 nM | 8 nM |  |  | 
12 | affinity ligand SEQ ID NO: 83 (designed binder, biotinylated (AviTag system)) MGGGGSAAAGDEADRWADLGAAYAARGDYDRAIEYYQRALELDPNNAWAWWDLGVAYAARGDYDRAIEYYQRALELDPNNAVAWRRLGHAYAARGDYDRAIEYYQRALELDPNNELAREQLGRARRARRGQAGQGGGSGLNDIFEAQKIEWHECHHHHHH | 22 nM | < 1 nM | 8 nM |  |  | 
13 | affinity ligand SEQ ID NO: 82 (designed binder, biotinylated (AviTag system)) MGGGGSAAAGDEAGRWYDLGAAYAARGDYDRAIEYYQRALELDPNNAWAWWELGVAYAARGDYDRAIEYYQRALELDPNNAVAWARLGIAYAARGDYDRAIEYYQRALELDPNNEVARDALEYARRARRGQAGQGGGSGLNDIFEAQKIEWHECHHHHHH | 23 nM | < 1 nM | 6 nM |  |  | 
14 | affinity ligand SEQ ID NO: 154 (designed binder, biotinylated (AviTag system)) MGDEAERWYDLGAAYAARGDYDRAIEYYQRALELDPNDAWAWWELGVAYAARGDYDRAIEYYQRALELDPNNAVAWARLGIAYAARGDYDRAIEYYQRALELDPNNEVARDALEYARRARRCHHHHHH |  |  |  | 13 nM | < 1 nM | 92 nM
15 | affinity ligand SEQ ID NO: 163 (designed binder, biotinylated (AviTag system)) MGHHHHHHDEAERWYDLGAAYAARGDYDRAIEYYQRALELDPNDAWAWWELGVAYAARGDYDRAIEYYQRALELDLNNAVAWARLGIAYAARGDYDRAIEYYQRALELDPNNEVARDALEYARRARRAPKC |  |  |  | 13 nM | < 1 nM | 

Continued, values first:

Row | Kd [1] | Kd [2] | Kd [3] | Kd [4] | Kd [5] | Kd [6] | Binder
16 |  |  |  | 28 nM | < 1 nM |  | affinity ligand SEQ ID NO: 170 (designed binder, biotinylated (AviTag system)) MGDEADRWYDQGAAYAARGDYDRAIEYYERALELDPNDAWAWWELGVAYAARGDYDRAIEYYQRALELDPNDAVAWARLGHAYAARGDYDRAIEYYQRALELDPNNEAARSNLEYARRAAACGLNDIFEAQKIEWHEHHHHHH
17 |  |  |  | 215 nM | < 1 nM |  | affinity ligand SEQ ID NO: 172 (designed binder, biotinylated (AviTag system)) MGDEADRWYDQGAAYAARGDYDRAIEYYQRALELDPNNAWAWWELGVAYAARGDYDRAIEYYQRALELDPNDAVAWSRLGHAYAARGDYDRAIEHYQRALELDPNNEVARHLLEVARRAAACGLNDIFEAQKIEWHEHHHHHH
18 |  |  |  | 95 nM | < 1 nM |  | affinity ligand SEQ ID NO: 173 (designed binder, biotinylated (AviTag system)) MGDEADRWYDQGAAYAARGDYDRAIEYYQRALELDPNNAWAWWELGVAYAARGDYDRAIEYYQRALELDPNDAVAWSRLGHAYAARGDYDRAIEYYQRALELDPNNEVARHLLEVARRAAACGLNDIFEAQKIEWHEHHHHHH
19 |  |  |  | 221 nM | < 1 nM |  | affinity ligand SEQ ID NO: 174 (designed binder, biotinylated (AviTag system)) MGDEADRWYDQGAAYAARGDYDRAIEYYERALELDPNNAWAWWELGVAYAARGDYDRAIEYYQRALELDPNDAVAWARLGHAYAARGDYDRAIEYYQRALELDPNNEAARSNLEYARRAAACGLNDIFEAQKIEWHEHHHHHH
20 |  |  |  | 242 nM | < 1 nM |  | affinity ligand SEQ ID NO: 171 (designed binder, biotinylated (AviTag system)) MGDEADRWYYQGAAYAARGDYDRAIEYYERALELDPNNAWAWWELGVAYAARGDYDRAIEYYQRALELDPNDAVAWARLGHAYAARGDYDRAIEYYQRALELDPNNEAARSNLEYARRAAACGLNDIFEAQKIEWHEHHHHHH
21 |  |  |  | 31 nM | < 1 nM |  | affinity ligand SEQ ID NO: 165 (designed binder, biotinylated (AviTag system)) MDEAAHWEVQGAAYAARGDYDRAIEYYERALELDPNNAWAWEHLGWAYAARGDFDRAIEYYERALELDPDDAHAWFRLGFAYAARGDYDRAIEYYERALELDPEDELARAELESARRARQGQAGQGWAEFRQRLAAIRTRLEALGGSEAELAAFEREIAAFESELQAYAGAGNPEVEALRREAAAIRDELQAYRHNHHHHHHC
22 |  |  |  | 232 nM | < 1 nM |  | affinity ligand SEQ ID NO: 168 (designed binder, biotinylated (AviTag system)) MDEVARWEVQGAAYAARGGYDRAIEYYERALELDPNNAWAWEHLGWAYAARGDYDRAIEYYERALELDPDDAHEWFRLGFAYAARGDYDRAIEYYERALELDPEDELARAELESARRARQGQAGQGWAEFRQRLAAIRTRLEALGGSEAELAAFEREIAAFESELQAYAGAGNPEVEALRREAAAIRDELQAYRHNHHHHHHC
23 |  |  |  | 120 nM | < 1 nM |  | affinity ligand SEQ ID NO: 166 (designed binder, biotinylated (AviTag system)) MDEAARWEVQGAAYAARGDYDRAIEYYERVLELDPNDAWAWEHLGWAYAARGDYDRAIEYYERALEVDPDDAHAWFRLGFAYAARGDYDRAMEYYERALELDPEDELARAELESARRARQGQAGQGWAEFRQRLAAIRTRLEALGGSEAELAAFEREIAAFESELQAYAGAGNPEVEALRREAAAIRDELQAYRHNHHHHHHC
24 |  |  |  | 31 nM | < 1 nM |  | affinity ligand SEQ ID NO: 167 (designed binder, biotinylated (AviTag system)) MDEAARWEVQGAAYAARGDYDRAIEYYERALELDPNNAWAWEHLGWAYAARGDYDRAIEYYERALELDPDDAHSWFRLGFAYAVRGDYDRAIEYYERALELDPEDELARAELESARRARQGQAGQGWAEFRQRLAAIRTRLEALGGSEAELAAFEREIAAFESELQAYAGAGNPEVEALRREAAAIRDELQAYRHNHHHHHHC
25 |  |  |  | 82 nM | < 1 nM |  | affinity ligand SEQ ID NO: 164 (designed binder, biotinylated (AviTag system)) MGDEAERWYDLGAAYAARGDYDRAIEYYQRALELDPNDAWAWWELGVAYAARGDYDRAIEYYQRALELDLNNAVAWARLGIAYAARGDYDRAIEYYQRALELDPNNEVARDALEYARRARRC
